Data taken from patent US20220242958A1 (published 2022).
Changes are numbered by the printed parent chain. Numbers in names are those of the source.

T1: recombinant IL-3Rα ectodomain (UniProt P26951 19-305, limits assumed)
T1 construct: extracellular domain; also called IL-3Ra ectodomain; recombinant IL-3Ra
T1 sequence (looked up): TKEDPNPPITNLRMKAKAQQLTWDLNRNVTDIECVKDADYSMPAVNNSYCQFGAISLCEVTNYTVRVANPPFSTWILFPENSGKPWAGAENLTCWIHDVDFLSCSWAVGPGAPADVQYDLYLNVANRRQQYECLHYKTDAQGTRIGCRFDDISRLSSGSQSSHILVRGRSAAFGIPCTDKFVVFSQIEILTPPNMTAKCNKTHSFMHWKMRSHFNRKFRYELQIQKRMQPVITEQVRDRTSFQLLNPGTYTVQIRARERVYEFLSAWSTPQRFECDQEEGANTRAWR

B1: CD4#8-IL23R#20 (bispecific antibody)
chain: EVQLVESGGGSVQPGGSLTLSCGTSGRTFNVMGWFRQAPGKEREFVAAVRWSSTGIYYTQYADSVKSRFTISRDNAKNTVYLEMNSLKPEDTAVYYCAADTYNSNPARWDGYDFRGQGTLVTVSSGGGGSGGGGSGGGGSGGGGSGGGGSGGGGSGGGGSEVQLVESGGGLVQAGGSLRLSCAASGRTFSSYAMGWFRQAPGKDREFVAAISWIGESTYYADSVKGRFTISRDNAKNTVYLRMNSLKPEDTAVYYCAADLYYTAYVAAADEYDYWGQGTLVTVSS
notes: also called BI#44; T023200044
B2: CD4#8-IL23R#19 (bispecific antibody)
chain: EVQLVESGGGSVQPGGSLTLSCGTSGRTFNVMGWFRQAPGKEREFVAAVRWSSTGIYYTQYADSVKSRFTISRDNAKNTVYLEMNSLKPEDTAVYYCAADTYNSNPARWDGYDFRGQGTLVTVSSGGGGSGGGGSGGGGSGGGGSGGGGSGGGGSGGGGSEVQLVESGGGLVQPGGSLTLSCVASGRTFSTDVMGWFRQAPGKEREFVAAHRTSGISTVYAASVKGRFTISRDNAKNTVYLGMKSLKPEDTAVYVCAAGSDASGGYDYWGQGTLVTVSS
notes: also called BI#45; T023200045
B3: IL23R#20-CD4#8 (bispecific antibody)
chain: EVQLVESGGGLVQAGGSLRLSCAASGRTFSSYAMGWFRQAPGKDREFVAAISWIGESTYYADSVKGRFTISRDNAKNTVYLRMNSLKPEDTAVYYCAADLYYTAYVAAADEYDYWGQGTLVTVSSGGGGSGGGGSGGGGSGGGGSGGGGSGGGGSGGGGSEVQLVESGGGSVQPGGSLTLSCGTSGRTFNVMGWFRQAPGKEREFVAAVRWSSTGIYYTQYADSVKSRFTISRDNAKNTVYLEMNSLKPEDTAVYYCAADTYNSNPARWDGYDFRGQGTLVTVSS
notes: also called BI#43; T023200043
B4: IL12Rb1#30-CD4#8 (bispecific antibody)
chain: EVQLVESGGGLVQTGGSLRLSCAASGRTPRLVAMGWFRQTPGKEREFVGEIILSKGFTYYADSVKGRFTISRVNAKNTITMYLQMNSLKSEDTAVYYCAGRQNWSGSPARTNEYEYWGQGTLVTVSSGGGGSGGGGSGGGGSGGGGSGGGGSGGGGSGGGGSEVQLVESGGGSVQPGGSLTLSCGTSGRTFNVMGWFRQAPGKEREFVAAVRWSSTGIYYTQYADSVKSRFTISRDNAKNTVYLEMNSLKPEDTAVYYCAADTYNSNPARWDGYDFRGQGTLVTVSS
notes: also called BI#46; T023200046
B5: IL12Rb1#31-CD4#8 (bispecific antibody)
chain: B4 chain with R30S, L31I, V32I, V73A, G100A, S107N, A109T
notes: also called BI#47; T023200047
B6: CD4#8-IL12Rb1#30 (bispecific antibody)
chain: EVQLVESGGGSVQPGGSLTLSCGTSGRTFNVMGWFRQAPGKEREFVAAVRWSSTGIYYTQYADSVKSRFTISRDNAKNTVYLEMNSLKPEDTAVYYCAADTYNSNPARWDGYDFRGQGTLVTVSSGGGGSGGGGSGGGGSGGGGSGGGGSGGGGSGGGGSEVQLVESGGGLVQTGGSLRLSCAASGRTPRLVAMGWFRQTPGKEREFVGEIILSKGFTYYADSVKGRFTISRVNAKNTITMYLQMNSLKSEDTAVYYCAGRQNWSGSPARTNEYEYWGQGTLVTVSS
notes: also called BI#40; T023200040
B7: CD4#8-IL12Rb1#31 (bispecific antibody)
chain: B6 chain with R190S, L191I, V192I, V233A, G260A, S267N, A269T
notes: also called BI#41; T023200041
B8: 55A01-14D09 (A0110055A01-35GS-4CXCR014D09(Q108L)) (bispecific antibody)
chain: EVQLVESGGGSVQAGGSLRLSCTTSGRALNMYVMGWFRQAPGNEREFVAATSSSGGSTSYPDSVKGRFTISRDNAKNTVYLQMNSLKPEDTAAYRCAASPYVSTPTMNILEEYRYWGQGTLVTVSSGGGGSGGGGSGGGGSGGGGSGGGGSGGGGSGGGGSEVQLVESGGGLVQAGGSLRLSCVASGISSSKRNMGWYRQAPGKQRESVATISSGGNKDYTDAVKDRFTISRDTTKNTVYLQMNSLKPEDTAVYYCKIEAGTGWATRRGYTYWGQGTLVTVSSAAAEQKLISEEDLNGAAHHHHHH
notes: the entry carries a c-myc-His6 tag; also made as Flag3-His6-tagged protein; also called CD123#2-CXCR4#1; BI#8/22
B9: 14D09-55A01 (4CXCR014D09(Q108L)-35GS-A0110055A01) (bispecific antibody)
chain: EVQLVESGGGLVQAGGSLRLSCVASGISSSKRNMGWYRQAPGKQRESVATISSGGNKDYTDAVKDRFTISRDTTKNTVYLQMNSLKPEDTAVYYCKIEAGTGWATRRGYTYWGQGTLVTVSSGGGGSGGGGSGGGGSGGGGSGGGGSGGGGSGGGGSEVQLVESGGGSVQAGGSLRLSCTTSGRALNMYVMGWFRQAPGNEREFVAATSSSGGSTSYPDSVKGRFTISRDNAKNTVYLQMNSLKPEDTAAYRCAASPYVSTPTMNILEEYRYWGQGTLVTVSSAAAEQKLISEEDLNGAAHHHHHH
notes: the entry carries a c-myc-His6 tag; also made as Flag3-His6-tagged protein; also called CXCR4#1-CD123#2; BI#7/19
B10: 57A07-281F12 (A0110057A07-35GS-4CXCR281F12(Q108L)) (bispecific antibody)
chain: EVQLVESGGGLVQAGGSLRLSCAASGSIFSGNVMGWYRRQAPGKEREWVAAIASGGSIYYRDSVKGRFTISRDNAKNTVYLQMNSLKPEDTAVYYCNSHPPTLPYWGQGTLVTVSSGGGGSGGGGSGGGGSGGGGSGGGGSGGGGSGGGGSEVQLVESGGGLVQAGDSLRLSCAASGRAFSRYAMGWFRQAPGKEREFVAAIGWGPSKTNYADSVKGRFTISRDNAKNTVYLQMNTLKPEDTAVYSCAAKFVNTDSTWSRSEMYTYWGQGTLVTVSSAAAEQKLISEEDLNGAAHHHHHH
notes: the entry carries a c-myc-His6 tag; also made as Flag3-His6-tagged protein; also called CD123#1-CXCR4#2; BI#10/21
B11: 55A01-281F12 (A0110055A01-35GS-4CXCR281F12(Q108L)) (bispecific antibody)
chain: EVQLVESGGGSVQAGGSLRLSCTTSGRALNMYVMGWFRQAPGNEREFVAATSSSGGSTSYPDSVKGRFTISRDNAKNTVYLQMNSLKPEDTAAYRCAASPYVSTPTMNILEEYRYWGQGTLVTVSSGGGGSGGGGSGGGGSGGGGSGGGGSGGGGSGGGGSEVQLVESGGGLVQAGDSLRLSCAASGRAFSRYAMGWFRQAPGKEREFVAAIGWGPSKTNYADSVKGRFTISRDNAKNTVYLQMNTLKPEDTAVYSCAAKFVNTDSTWSRSEMYTYWGQGTLVTVSSAAAEQKLISEEDLNGAAHHHHHH
notes: the entry carries a c-myc-His6 tag; also made as Flag3-His6-tagged protein; also called CD123#2-CXCR4#2; BI#15/24
B12: 57A07-14D09 (A0110057A07-35GS-4CXCR014D09(Q108L)) (bispecific antibody)
chain: EVQLVESGGGLVQAGGSLRLSCAASGSIFSGNVMGWYRRQAPGKEREWVAAIASGGSIYYRDSVKGRFTISRDNAKNTVYLQMNSLKPEDTAVYYCNSHPPTLPYWGQGTLVTVSSGGGGSGGGGSGGGGSGGGGSGGGGSGGGGSGGGGSEVQLVESGGGLVQAGGSLRLSCVASGISSSKRNMGWYRQAPGKQRESVATISSGGNKDYTDAVKDRFTISRDTTKNTVYLQMNSLKPEDTAVYYCKIEAGTGWATRRGYTYWGQGTLVTVSSAAAEQKLISEEDLNGAAHHHHHH
notes: the entry carries a c-myc-His6 tag; for the cell assays the construct was recloned and made in Pichia as Flag3-His6-tagged protein; also called CD123#1-CXCR4#1; BI#11/23
B13: 14D09-57A07 (4CXCR014D09(Q108L)-35GS-A0110057A07) (bispecific antibody)
chain: EVQLVESGGGLVQAGGSLRLSCVASGISSSKRNMGWYRQAPGKQRESVATISSGGNKDYTDAVKDRFTISRDTTKNTVYLQMNSLKPEDTAVYYCKIEAGTGWATRRGYTYWGQGTLVTVSSGGGGSGGGGSGGGGSGGGGSGGGGSGGGGSGGGGSEVQLVESGGGLVQAGGSLRLSCAASGSIFSGNVMGWYRRQAPGKEREWVAAIASGGSIYYRDSVKGRFTISRDNAKNTVYLQMNSLKPEDTAVYYCNSHPPTLPYWGQGTLVTVSSAAAEQKLISEEDLNGAAHHHHHH
notes: the entry carries a c-myc-His6 tag; also made as Flag3-His6-tagged protein; also called CXCR4#1-CD123#1; BI#16/20

target: T2, human CD4, cell-expressed (human, UniProt P01730 26-458); assay: FACS, MOLM-13 cells
T2 construct: whole, on cells

Row | Binder | binding result
1 | B1 | binds
2 | B2 | binds
3 | B3 | binds
4 | B4 | binds
5 | B5 | binds
6 | B6 | binds
7 | B7 | binds

target: T1, recombinant IL-3Rα ectodomain; assay: ELISA, recombinant IL-3Ra

Row | Binder | binding result
8 | B8 | binds
9 | B9 | binds
10 | B10 | binds
11 | B11 | binds
12 | B12 | binds
13 | B13 | binds

target: human CXCR4 (on cells, membrane extracts or viral lipoparticles) (human, UniProt P61073 1-352); assay: cell-based or functional assay
Sequence (P61073 whole entry): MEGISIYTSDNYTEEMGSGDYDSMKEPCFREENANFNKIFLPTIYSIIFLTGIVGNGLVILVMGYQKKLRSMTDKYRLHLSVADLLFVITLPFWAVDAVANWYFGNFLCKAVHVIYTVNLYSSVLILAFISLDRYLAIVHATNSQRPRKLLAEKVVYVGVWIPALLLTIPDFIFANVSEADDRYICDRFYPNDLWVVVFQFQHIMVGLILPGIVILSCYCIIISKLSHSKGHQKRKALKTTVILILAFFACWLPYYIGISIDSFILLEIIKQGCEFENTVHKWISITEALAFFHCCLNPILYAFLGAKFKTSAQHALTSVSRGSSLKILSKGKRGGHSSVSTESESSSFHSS

Row | Binder | Fold inc. vs anti-CXCR4 building block, Jurkat E6-1 [fold] | Fold inc. vs anti-CXCR4 building block, MOLM-13 [fold] | IC50, CXCL-12 induced chemotaxis, Jurkat E6-1 [nM] | IC50, CXCL-12 induced chemotaxis, MOLM-13 [nM]
14 | B8 | 0.12 | 0.03 | 85 | 290
15 | B9 | 0.87 | 2.39 | 12 | 3.6
16 | B12 | 0.05 |  | 210 | 
17 | B13 | 0.69 | 2.39 | 15 | 3.6
